Assay [1] addresses Histone H3.2 (human) (UniProt Q71DI3). The assay is described as follows: in vivo azide-A-DSBSO XL-MS, HEK 293 cells.
Assay [2] has as its target Histone H4 (human) (UniProt P62805). The assay is described as follows: in vivo azide-A-DSBSO XL-MS, HEK 293 cells.

With “Histone H2B (core histone, isoforms not told apart)”, the unique cross-linked peptides in assay [1] was found to be 8 peptides; in assay [2], 10 peptides.
